From EP4361176A1 (CHUGAI SEIYAKU KABUSHIKI KAISHA, dated 2024)

T1: hFcyRIIaH on hFcyRIIaH-expressing Jurkat cells (human, UniProt P12318 34-317)
T1 sequence (looked up): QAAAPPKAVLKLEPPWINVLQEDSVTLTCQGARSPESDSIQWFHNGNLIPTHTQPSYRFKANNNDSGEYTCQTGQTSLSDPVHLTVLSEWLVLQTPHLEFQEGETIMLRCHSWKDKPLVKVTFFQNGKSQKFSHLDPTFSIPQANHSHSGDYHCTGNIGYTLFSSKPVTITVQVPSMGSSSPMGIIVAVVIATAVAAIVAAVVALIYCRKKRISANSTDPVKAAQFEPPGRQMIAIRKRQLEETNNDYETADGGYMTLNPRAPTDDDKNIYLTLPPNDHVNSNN

T2: human FcγRIIa H extracellular domain (human, UniProt P12318 34-217)
T2 construct: extracellular domain; Made by the method of WO2014104165; also called hFcγR IIa H; FcyRIIaH
T2 sequence (looked up): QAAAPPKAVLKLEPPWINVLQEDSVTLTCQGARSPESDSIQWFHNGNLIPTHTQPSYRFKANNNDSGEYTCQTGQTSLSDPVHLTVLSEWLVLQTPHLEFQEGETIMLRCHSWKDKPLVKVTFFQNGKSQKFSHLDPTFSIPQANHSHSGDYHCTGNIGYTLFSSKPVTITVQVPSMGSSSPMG


What was measured:
[1] = target: hFcyRIIIaV on hFcyRIIIaV-expressing Jurkat cells (human, UniProt P08637 17-254); test: cell-based or functional assay
Sequence of hFcyRIIIaV on hFcyRIIIaV-expressing Jurkat cells (P08637 17-254): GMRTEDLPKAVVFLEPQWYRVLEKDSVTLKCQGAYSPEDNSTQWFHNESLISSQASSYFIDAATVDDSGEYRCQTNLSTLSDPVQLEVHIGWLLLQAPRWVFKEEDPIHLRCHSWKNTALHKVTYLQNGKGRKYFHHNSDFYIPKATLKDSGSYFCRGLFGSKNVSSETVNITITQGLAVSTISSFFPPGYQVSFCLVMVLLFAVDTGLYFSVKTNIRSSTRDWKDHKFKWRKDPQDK

[2] = target: T1, hFcyRIIaH on hFcyRIIaH-expressing …; test: cell-based or functional assay
[3] = target: T2, human FcγRIIa H extracellular domain; test: SPR; KD for FcγRIIb divided by KD for this FcγR
[4] = target: T3, human FcγRIIIa F extracellular domain (human, UniProt P08637 17-208); test: SPR; KD for FcγRIIb divided by KD for this FcγR
T3 construct: extracellular domain; Made by the method of WO2014104165; also called hFcγR IIIa F; FcyRIIIaF
T3 sequence (P08637 17-208): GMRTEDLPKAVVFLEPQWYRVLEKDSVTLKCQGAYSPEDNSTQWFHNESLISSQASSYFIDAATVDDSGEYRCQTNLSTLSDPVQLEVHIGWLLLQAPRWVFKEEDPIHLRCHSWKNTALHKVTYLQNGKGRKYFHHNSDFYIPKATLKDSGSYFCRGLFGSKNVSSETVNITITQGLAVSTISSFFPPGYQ

Binder | EC50 value (µg/mL), ADCC reporter bioassay (fold induction of luminescence), Hepa1-6/hEREG target cells [1] | EC50 value (µg/mL), ADCP reporter bioassay (fold induction of luminescence), Hepa1-6/hEREG target cells [2] | A/I ratio (KD for FcγRIIb divided by KD for each FcyR) [3] | A/I ratio (KD for FcγRIIb divided by KD for each FcyR) [4]
H240-Kn443/L73-k0//H240-Hl408/L73-k0 (antibody, human IgG1, kappa, also called EGL-ART3; ART3) heavy 1: QDQLVQSGAEVKKPGASVKVSCKASGFNIKDTYIQWVRQAPGQGLEWMGRIDPLRKQTKYREKFEGRVTITADTSTNTAYMELSSLRSEDTAVYYCVRSGREFDYWGQGTLVTVSSASTKGPSVFPLAPSSKSTSGGTAALGCLVKDYFPEPVTVSWNSGALTSGVHTFPAVLQSSGLYSLSSVVTVPSSSLGTQTYICNVNHKPSNTKVDKKVEPKSCDKTHTCPPCPAPEFQWGPMVFLFPPKPKDTLMISRTPEVTCVVVDVSDEEPEVKFNWYVDGVEVHNAKTKPREEQYNATYRVVSVLTVLHQDWLNGKEYKCKVSNDALPAPIEKTISKAKGQPREPQVCTLPPSRDELTKNQVSLWCLVKGFYPSDIAVEWESNGQPENNYKTTPPVLDSDGSFFLYSKLTVDKSRWQQGNVFSCSVMHEALHNHYTQKSLSLSP heavy 2: QDQLVQSGAEVKKPGASVKVSCKASGFNIKDTYIQWVRQAPGQGLEWMGRIDPLRKQTKYREKFEGRVTITADTSTNTAYMELSSLRSEDTAVYYCVRSGREFDYWGQGTLVTVSSASTKGPSVFPLAPSSKSTSGGTAALGCLVKDYFPEPVTVSWNSGALTSGVHTFPAVLQSSGLYSLSSVVTVPSSSLGTQTYICNVNHKPSNTKVDKKVEPKSCDKTHTCPPCPAPELLAGPSVFLFPPKPKDTLMISRTPEVTCVVVDVSHEEPEVKFNWYVDGVEVHNAKTKPREEQYNATYRVVSVLTVLHQDWLNGKEYKCKVSNDALPAPIEETISKAKGQPREPQVYTLPPSRCELTKNQVSLSCAVKGFYPSDIAVEWESNGQPENNYKTTPPVLDSDGSFFLVSKLTVDKSRWQQGNVFSCSVMHEALHNHYTQKSLSLSP light: DIQMTQSPSSLSASVGDRVTITCRASQDIHKYIAWYQQKPGQAPRLLIQYTSTLQPGVPSRFSGSGSGTDYTFTISSLQPEDIATYYCLQYEQLRTFGGGTKVEIKRTVAAPSVFIFPPSDEQLKSGTASVVCLLNNFYPREAKVQWKVDNALQSGNSQESVTEQDSKDSTYSLSSTLTLSKADYEKHKVYACEVTHQGLSSPVTKSFNRGEC | 0.00153 µg/mL | 0.0158 µg/mL | 181 | 396
H240-Kn462/L73-k0//H240-Hl441/L73-k0 (antibody, human IgG1, kappa, also called EGL-ART5; ART5) heavy 1: QDQLVQSGAEVKKPGASVKVSCKASGFNIKDTYIQWVRQAPGQGLEWMGRIDPLRKQTKYREKFEGRVTITADTSTNTAYMELSSLRSEDTAVYYCVRSGREFDYWGQGTLVTVSSASTKGPSVFPLAPSSKSTSGGTAALGCLVKDYFPEPVTVSWNSGALTSGVHTFPAVLQSSGLYSLSSVVTVPSSSLGTQTYICNVNHKPSNTKVDKKVEPKSCDKTHTCPPCPAPEFQWGPMVFLFPPKPKDVLMISRTPEVTCVVVDVSDEEPEVKFNWYVDGVEVHNAKTKPREEQYNATYRVVSVLPVLHQDWLNGKEYKCKVSNDALPAPIEKTISKAKGQPREPQVCTLPPSRDELTKNQVSLWCLVKGFYPSDIAVEWESNGQPENNYKTTPPVLDSDGSFFLYSKLTVDKSRWQQGNVFSCSVMHEALHNHYTQKSLSLSP heavy 2: QDQLVQSGAEVKKPGASVKVSCKASGFNIKDTYIQWVRQAPGQGLEWMGRIDPLRKQTKYREKFEGRVTITADTSTNTAYMELSSLRSEDTAVYYCVRSGREFDYWGQGTLVTVSSASTKGPSVFPLAPSSKSTSGGTAALGCLVKDYFPEPVTVSWNSGALTSGVHTFPAVLQSSGLYSLSSVVTVPSSSLGTQTYICNVNHKPSNTKVDKKVEPKSCDKTHTCPPCPAPELLAGPSVFLFPPKPKDVLMISRTPEVTCVVVDVSHEEPEVKFNWYVDGVEVHNAKTKPREEQYNATYRVVSVLPVLHQDWLNGKEYKCKVSNDALPAPIEETISKAKGQPREPQVYTLPPSRCELTKNQVSLSCAVKGFYPSDIAVEWESNGQPENNYKTTPPVLDSDGSFFLVSKLTVDKSRWQQGNVFSCSVMHEALHNHYTQKSLSLSP light: DIQMTQSPSSLSASVGDRVTITCRASQDIHKYIAWYQQKPGQAPRLLIQYTSTLQPGVPSRFSGSGSGTDYTFTISSLQPEDIATYYCLQYEQLRTFGGGTKVEIKRTVAAPSVFIFPPSDEQLKSGTASVVCLLNNFYPREAKVQWKVDNALQSGNSQESVTEQDSKDSTYSLSSTLTLSKADYEKHKVYACEVTHQGLSSPVTKSFNRGEC | 0.00167 µg/mL | 0.0245 µg/mL | 240 | 399

Further lines, results first:

EC50 value (µg/mL), ADCC reporter bioassay (fold induction of luminescence), Hepa1-6/hEREG target cells [1] | EC50 value (µg/mL), ADCP reporter bioassay (fold induction of luminescence), Hepa1-6/hEREG target cells [2] | A/I ratio (KD for FcγRIIb divided by KD for each FcyR) [3] | A/I ratio (KD for FcγRIIb divided by KD for each FcyR) [4] | Binder
0.00107 µg/mL | 0.0171 µg/mL | 47.2 | 2350 | H240-Kn461/L73-k0//H240-Hl443/L73-k0 (antibody, human IgG1, kappa, also called EGL-ART8; ART8) heavy 1: QDQLVQSGAEVKKPGASVKVSCKASGFNIKDTYIQWVRQAPGQGLEWMGRIDPLRKQTKYREKFEGRVTITADTSTNTAYMELSSLRSEDTAVYYCVRSGREFDYWGQGTLVTVSSASTKGPSVFPLAPSSKSTSGGTAALGCLVKDYFPEPVTVSWNSGALTSGVHTFPAVLQSSGLYSLSSVVTVPSSSLGTQTYICNVNHKPSNTKVDKKVEPKSCDKTHTCPPCPAPEFQWGPMVFLFPPKPKDVLMISRTPEVTCVVVDVSDEEPEVKFNWYVDGVEVHNAKTKPREEQYNATYRVVSVLPVLHQDWLNGKEYKCKVSNDALPAPEEKTISKAKGQPREPQVCTLPPSRDELTKNQVSLWCLVKGFYPSDIAVEWESNGQPENNYKTTPPVLDSDGSFFLYSKLTVDKSRWQQGNVFSCSVMHEALHNHYTQKSLSLSP heavy 2: QDQLVQSGAEVKKPGASVKVSCKASGFNIKDTYIQWVRQAPGQGLEWMGRIDPLRKQTKYREKFEGRVTITADTSTNTAYMELSSLRSEDTAVYYCVRSGREFDYWGQGTLVTVSSASTKGPSVFPLAPSSKSTSGGTAALGCLVKDYFPEPVTVSWNSGALTSGVHTFPAVLQSSGLYSLSSVVTVPSSSLGTQTYICNVNHKPSNTKVDKKVEPKSCDKTHTCPPCPAPELLAGPSVFLFPPKPKDVLMISRTPEVTCVVVDVSHEEPEVKFNWYVDGVEVHNAKTKPREEQYNATYRVVSVLPVLHQDWLNGKEYKCKVSNDALPAPEEETISKAKGQPREPQVYTLPPSRCELTKNQVSLSCAVKGFYPSDIAVEWESNGQPENNYKTTPPVLDSDGSFFLVSKLTVDKSRWQQGNVFSCSVMHEALHNHYTQKSLSLSP light: DIQMTQSPSSLSASVGDRVTITCRASQDIHKYIAWYQQKPGQAPRLLIQYTSTLQPGVPSRFSGSGSGTDYTFTISSLQPEDIATYYCLQYEQLRTFGGGTKVEIKRTVAAPSVFIFPPSDEQLKSGTASVVCLLNNFYPREAKVQWKVDNALQSGNSQESVTEQDSKDSTYSLSSTLTLSKADYEKHKVYACEVTHQGLSSPVTKSFNRGEC
0.000789 µg/mL | 0.0432 µg/mL | 65.2 | 9940 | H240-Kn456/L73-k0//H240-Hl446/L73-k0 (antibody, human IgG1, kappa, also called EGL-ART4; ART4) heavy 1: QDQLVQSGAEVKKPGASVKVSCKASGFNIKDTYIQWVRQAPGQGLEWMGRIDPLRKQTKYREKFEGRVTITADTSTNTAYMELSSLRSEDTAVYYCVRSGREFDYWGQGTLVTVSSASTKGPSVFPLAPSSKSTSGGTAALGCLVKDYFPEPVTVSWNSGALTSGVHTFPAVLQSSGLYSLSSVVTVPSSSLGTQTYICNVNHKPSNTKVDKKVEPKSCDKTHTCPPCPAPEFQWGPMVFLFPPKPKDVLMISRTPEVTCVVVDVSDEEPEVKFNWYVDGVEVHNAKTKPREEQYNATYRVVSVLPVLHQDWLNGKEYKCKVSNKALPMPEEKTISKAKGQPREPQVCTLPPSRDELTKNQVSLWCLVKGFYPSDIAVEWESNGQPENNYKTTPPVLDSDGSFFLYSKLTVDKSRWQQGNVFSCSVMHEALHNHYTQKSLSLSP heavy 2: QDQLVQSGAEVKKPGASVKVSCKASGFNIKDTYIQWVRQAPGQGLEWMGRIDPLRKQTKYREKFEGRVTITADTSTNTAYMELSSLRSEDTAVYYCVRSGREFDYWGQGTLVTVSSASTKGPSVFPLAPSSKSTSGGTAALGCLVKDYFPEPVTVSWNSGALTSGVHTFPAVLQSSGLYSLSSVVTVPSSSLGTQTYICNVNHKPSNTKVDKKVEPKSCDKTHTCPPCPAPELLAGPSVFLFPPKPKDVLMISRTPEVTCVVVDVSHEEPEVKFNWYVDGVEVHNAKTKPREEQYNATYRVVSVLPVLHQDWLNGKEYKCKVSNDALPMPEEETISKAKGQPREPQVYTLPPSRCELTKNQVSLSCAVKGFYPSDIAVEWESNGQPENNYKTTPPVLDSDGSFFLVSKLTVDKSRWQQGNVFSCSVMHEALHNHYTQKSLSLSP light: DIQMTQSPSSLSASVGDRVTITCRASQDIHKYIAWYQQKPGQAPRLLIQYTSTLQPGVPSRFSGSGSGTDYTFTISSLQPEDIATYYCLQYEQLRTFGGGTKVEIKRTVAAPSVFIFPPSDEQLKSGTASVVCLLNNFYPREAKVQWKVDNALQSGNSQESVTEQDSKDSTYSLSSTLTLSKADYEKHKVYACEVTHQGLSSPVTKSFNRGEC
